Test results taken from PMC6097439 (BMC Biology, 2018).
Where a chain is given by its changes, count along the chain named. Blank lines part the entries; values can stand above or below the binder they belong to.

Key:
[1] = biological target: Tie2, immobilized for SPR (human, UniProt Q02763 23-1124, Limits of the immobilized Tie2 are not printed. Taken as the mature extracellular domain (the text says extracellular domain of rhTie2 in the dual SPR experiment), ending at Lys745 as in commercial rh); experiment: SPR; Tie2 immobilized, Ang2-BD variants as analytes; ProteOn XPR36; steady state fit; as previously described [54]; settings: both partners purified
[2] = biological target: Tie2 expressed on TIME cells (human (endogenous in TIME cells), UniProt Q02763 23-1124); experiment: cell-based or functional assay
[3] = biological target: αvβ3 integrin expressed on TIME cells (human (endogenous in TIME cells), UniProt P06756 31-1048; P05106 27-788); experiment: cell-based or functional assay
[4] = biological target: T1, recombinant α5β1 integrin (human, UniProt P08648 42-995; P05556 21-728); experiment: SPR; integrins other than αvβ3 immobilized by amine coupling, 1 μM of the Ang2-BD variants as analyte, 25 °C, IBB; settings: both partners purified
T1 construct: human integrin α5 subunit, extracellular domain; human integrin β1 subunit, extracellular domain; source: bought: R&D Systems

[5] = biological target: T2, recombinant αvβ3 integrin (human, UniProt P06756 31-992; P05106 27-718); experiment: SPR; αvβ3 integrin immobilized by amine coupling (GLC chip), 12.5 to 200 nM Ang2-BD variants as analytes, 25 °C, IBB; 1:1 Langmuir model; settings: both partners purified
T2 construct: human integrin αv subunit (Phe31-Val992); human integrin β3 subunit (Gly27-Asp718); also called solubilized αvβ3 integrin; αvβ3 integrin extracellular domain; source: bought: R&D Systems

[6] = biological target: T3, recombinant αvβ5 integrin (human, UniProt P06756 31-992; P18084 24-719); experiment: SPR; αvβ5, αvβ1, αvβ6, αvβ8 integrins immobilized, 62.5 to 1000 nM Ang2-BDBC5 as analyte, 25 °C, IBB; two-state binding model; settings: both partners purified
T3 construct: human integrin αv subunit, extracellular domain; human integrin β5 subunit, extracellular domain; source: bought: R&D Systems

[7] = biological target: T4, recombinant αvβ1 integrin (human, UniProt P06756 31-992; P05556 21-728); experiment: as above; settings: both partners purified
T4 construct: human integrin αv subunit, extracellular domain; human integrin β1 subunit, extracellular domain; source: bought: R&D Systems

[8] = biological target: T5, recombinant αvβ6 integrin (human, UniProt P06756 31-992; P18564 22-709); experiment: as above; settings: both partners purified
T5 construct: human integrin αv subunit, extracellular domain; human integrin β6 subunit, extracellular domain; source: bought: R&D Systems

[9] = biological target: T6, recombinant αvβ8 integrin (human, UniProt P06756 31-992; P26012 43-684); experiment: as above; settings: both partners purified
T6 construct: human integrin αv subunit, extracellular domain; human integrin β8 subunit, extracellular domain; source: bought: R&D Systems
T6 sequence (P06756 31-992, chain 1 of 2): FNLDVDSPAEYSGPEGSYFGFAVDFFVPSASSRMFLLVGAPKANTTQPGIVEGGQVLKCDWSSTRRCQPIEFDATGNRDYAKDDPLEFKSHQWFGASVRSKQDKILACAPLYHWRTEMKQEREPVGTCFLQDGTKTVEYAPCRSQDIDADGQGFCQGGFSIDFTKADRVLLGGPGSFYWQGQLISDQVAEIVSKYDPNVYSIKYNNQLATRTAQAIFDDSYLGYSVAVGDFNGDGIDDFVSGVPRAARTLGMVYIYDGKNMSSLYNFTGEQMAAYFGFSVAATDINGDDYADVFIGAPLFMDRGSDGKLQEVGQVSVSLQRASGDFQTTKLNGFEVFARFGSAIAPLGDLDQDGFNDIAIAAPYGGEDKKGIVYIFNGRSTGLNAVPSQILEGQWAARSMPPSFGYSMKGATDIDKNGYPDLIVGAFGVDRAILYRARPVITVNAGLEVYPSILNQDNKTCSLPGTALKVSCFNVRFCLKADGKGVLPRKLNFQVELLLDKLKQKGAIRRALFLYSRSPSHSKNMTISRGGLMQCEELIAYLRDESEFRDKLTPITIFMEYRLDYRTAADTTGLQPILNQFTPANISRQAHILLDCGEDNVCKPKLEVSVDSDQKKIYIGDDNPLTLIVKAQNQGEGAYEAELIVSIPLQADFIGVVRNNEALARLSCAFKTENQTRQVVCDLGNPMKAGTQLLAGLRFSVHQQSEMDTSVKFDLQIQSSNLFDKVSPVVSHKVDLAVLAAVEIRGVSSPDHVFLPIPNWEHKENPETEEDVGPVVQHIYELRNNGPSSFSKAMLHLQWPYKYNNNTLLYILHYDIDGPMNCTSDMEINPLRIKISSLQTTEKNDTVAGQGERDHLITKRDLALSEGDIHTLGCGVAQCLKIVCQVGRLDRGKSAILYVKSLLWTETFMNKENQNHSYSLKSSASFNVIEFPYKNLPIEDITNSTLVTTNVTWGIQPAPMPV
T6 sequence (P26012 43-684, chain 2 of 2): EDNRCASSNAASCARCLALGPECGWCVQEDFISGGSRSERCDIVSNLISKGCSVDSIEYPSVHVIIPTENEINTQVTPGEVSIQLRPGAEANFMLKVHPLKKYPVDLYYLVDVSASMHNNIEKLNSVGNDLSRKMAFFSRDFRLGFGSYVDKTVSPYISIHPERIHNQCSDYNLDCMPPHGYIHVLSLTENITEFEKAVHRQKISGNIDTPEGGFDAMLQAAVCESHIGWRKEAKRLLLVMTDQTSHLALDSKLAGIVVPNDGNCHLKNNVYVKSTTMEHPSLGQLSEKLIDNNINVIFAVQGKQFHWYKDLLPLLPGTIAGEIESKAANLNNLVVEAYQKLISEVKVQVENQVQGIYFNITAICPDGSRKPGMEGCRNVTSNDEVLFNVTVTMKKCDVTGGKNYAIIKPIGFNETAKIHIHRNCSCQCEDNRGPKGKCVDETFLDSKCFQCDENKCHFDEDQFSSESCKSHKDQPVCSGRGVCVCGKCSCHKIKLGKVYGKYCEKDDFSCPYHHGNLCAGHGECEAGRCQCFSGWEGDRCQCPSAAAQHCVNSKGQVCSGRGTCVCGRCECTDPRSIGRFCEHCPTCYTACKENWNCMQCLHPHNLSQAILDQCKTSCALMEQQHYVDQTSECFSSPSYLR

T5 sequence (P06756 31-992, chain 1 of 2): as the sequence (P06756 31-992, chain 1 of 2) above
T5 sequence (P18564 22-709, chain 2 of 2): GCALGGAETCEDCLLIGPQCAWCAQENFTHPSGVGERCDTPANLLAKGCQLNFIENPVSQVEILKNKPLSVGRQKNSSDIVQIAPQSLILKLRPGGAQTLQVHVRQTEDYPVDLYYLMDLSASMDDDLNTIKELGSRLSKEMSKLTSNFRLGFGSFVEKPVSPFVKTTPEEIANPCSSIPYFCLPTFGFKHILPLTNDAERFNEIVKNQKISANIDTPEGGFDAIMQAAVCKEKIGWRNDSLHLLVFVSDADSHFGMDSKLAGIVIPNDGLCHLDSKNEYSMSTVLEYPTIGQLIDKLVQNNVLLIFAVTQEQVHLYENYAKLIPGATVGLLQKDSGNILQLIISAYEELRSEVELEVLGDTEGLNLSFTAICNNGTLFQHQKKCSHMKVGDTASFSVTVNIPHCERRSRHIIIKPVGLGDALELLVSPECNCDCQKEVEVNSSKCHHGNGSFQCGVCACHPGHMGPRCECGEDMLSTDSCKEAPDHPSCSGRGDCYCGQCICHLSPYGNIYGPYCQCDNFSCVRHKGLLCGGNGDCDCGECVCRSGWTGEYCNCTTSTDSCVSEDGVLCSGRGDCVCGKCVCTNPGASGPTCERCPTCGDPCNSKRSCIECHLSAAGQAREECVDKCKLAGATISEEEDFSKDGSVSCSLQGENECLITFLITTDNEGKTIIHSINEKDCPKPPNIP
T4 sequence (P06756 31-992, chain 1 of 2): as the sequence (P06756 31-992, chain 1 of 2) above
T4 sequence (P05556 21-728, chain 2 of 2): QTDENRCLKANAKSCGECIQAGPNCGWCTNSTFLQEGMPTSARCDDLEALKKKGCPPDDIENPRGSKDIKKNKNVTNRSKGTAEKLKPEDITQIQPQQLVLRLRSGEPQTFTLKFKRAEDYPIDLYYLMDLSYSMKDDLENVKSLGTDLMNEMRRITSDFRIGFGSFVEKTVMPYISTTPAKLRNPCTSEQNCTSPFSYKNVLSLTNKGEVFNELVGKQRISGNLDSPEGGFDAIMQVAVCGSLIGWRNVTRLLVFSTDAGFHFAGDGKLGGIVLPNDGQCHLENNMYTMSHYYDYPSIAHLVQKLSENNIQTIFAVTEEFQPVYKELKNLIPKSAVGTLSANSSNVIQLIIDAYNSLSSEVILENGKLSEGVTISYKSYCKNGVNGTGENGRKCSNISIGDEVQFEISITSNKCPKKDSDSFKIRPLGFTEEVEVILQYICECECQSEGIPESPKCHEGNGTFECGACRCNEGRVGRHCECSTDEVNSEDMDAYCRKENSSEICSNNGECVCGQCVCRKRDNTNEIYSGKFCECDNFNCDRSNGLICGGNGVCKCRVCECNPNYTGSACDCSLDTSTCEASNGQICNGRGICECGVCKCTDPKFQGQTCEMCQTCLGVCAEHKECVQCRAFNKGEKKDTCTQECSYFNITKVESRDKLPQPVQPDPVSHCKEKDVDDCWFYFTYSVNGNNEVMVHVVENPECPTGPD
T2 sequence (P06756 31-992, chain 1 of 2): as the sequence (P06756 31-992, chain 1 of 2) above
T2 sequence (P05106 27-718, chain 2 of 2): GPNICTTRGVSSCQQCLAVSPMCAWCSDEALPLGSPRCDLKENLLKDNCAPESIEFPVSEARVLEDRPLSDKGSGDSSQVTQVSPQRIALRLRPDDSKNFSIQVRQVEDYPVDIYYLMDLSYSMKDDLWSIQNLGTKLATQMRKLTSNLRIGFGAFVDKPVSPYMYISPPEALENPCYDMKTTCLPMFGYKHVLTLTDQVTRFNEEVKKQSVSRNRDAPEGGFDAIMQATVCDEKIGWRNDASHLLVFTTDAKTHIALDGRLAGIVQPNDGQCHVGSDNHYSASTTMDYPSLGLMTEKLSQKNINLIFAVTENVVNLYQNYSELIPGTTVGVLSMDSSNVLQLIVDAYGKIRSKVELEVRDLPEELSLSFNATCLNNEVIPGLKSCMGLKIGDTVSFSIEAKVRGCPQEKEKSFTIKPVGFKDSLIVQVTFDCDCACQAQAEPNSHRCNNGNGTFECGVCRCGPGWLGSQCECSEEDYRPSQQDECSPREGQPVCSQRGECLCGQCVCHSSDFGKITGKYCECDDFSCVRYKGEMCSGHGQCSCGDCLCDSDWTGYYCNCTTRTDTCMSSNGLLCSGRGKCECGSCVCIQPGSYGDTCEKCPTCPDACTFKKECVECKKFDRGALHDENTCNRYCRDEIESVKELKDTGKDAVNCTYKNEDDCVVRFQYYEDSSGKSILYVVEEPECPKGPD
T3 sequence (P06756 31-992, chain 1 of 2): as the sequence (P06756 31-992, chain 1 of 2) above
T3 sequence (P18084 24-719, chain 2 of 2): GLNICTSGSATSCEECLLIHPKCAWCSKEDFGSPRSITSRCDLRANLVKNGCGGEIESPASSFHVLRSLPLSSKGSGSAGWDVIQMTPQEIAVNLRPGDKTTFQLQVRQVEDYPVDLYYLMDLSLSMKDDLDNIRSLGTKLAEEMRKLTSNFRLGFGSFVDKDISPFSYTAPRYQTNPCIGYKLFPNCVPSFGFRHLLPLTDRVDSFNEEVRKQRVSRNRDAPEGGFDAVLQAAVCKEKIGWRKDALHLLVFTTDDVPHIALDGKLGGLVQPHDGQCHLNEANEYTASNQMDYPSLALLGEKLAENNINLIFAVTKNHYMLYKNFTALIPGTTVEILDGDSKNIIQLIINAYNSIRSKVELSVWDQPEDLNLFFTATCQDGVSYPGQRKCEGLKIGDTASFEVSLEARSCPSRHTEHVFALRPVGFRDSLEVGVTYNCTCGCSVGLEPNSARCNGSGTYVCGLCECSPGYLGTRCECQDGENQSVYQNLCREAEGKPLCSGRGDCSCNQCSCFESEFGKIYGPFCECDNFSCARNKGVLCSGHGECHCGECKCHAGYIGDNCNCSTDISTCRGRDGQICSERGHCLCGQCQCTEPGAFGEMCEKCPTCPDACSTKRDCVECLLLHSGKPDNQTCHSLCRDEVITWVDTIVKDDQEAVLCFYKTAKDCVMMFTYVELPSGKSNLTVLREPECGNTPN

- Kd [1]: 660 nM
B1: Ang2-BDWT, soluble protein (domain or fragment, UniProt O15123 281-496, looked up)
chain: FRDCAEVFKSGHTTNGIYTLTFPNSTEEIKAYCDMEAGGGGWTIIQRREDGSVDFQRTWKEYKVGFGNPSGEYWLGNEFVSQLTNQQRYVLKIHLKDWEGNEAYSLYEHFYLSSEELNYRIHLKGLTGTAGKISSISQPGNDFSTKDGDNDKCICKCSQMLTGGWWFDACGPSNLNGMYYPQRQNTNKFNGIKWYYWKGSGYSLKATTMMIRPADF
notes: The limits 281-496 are stated for the Ang2-BDWT gene; also called wild-type Ang2 BD; mono-specific Ang2-BDWT; source: Pichia (Multi-Copy Pichia Expression Kit), purified from yeast culture supernatant (HisTrap, Superdex 200)

- decrease in Tie2 phosphorylation intensity, TIME cells on vitronectin, 500 ng/ml FL-Ang1 with 1 μM variant (blocks FL-Ang1 on Tie2) [2]: 64%
- decrease in adhesion of TIME cells to vitronectin-coated plates, 1 μM variant, with 500 ng/ml FL-Ang1 (blocks αvβ3 integrin on vitronectin) [3]: 35%
- decrease in adhesion of TIME cells to vitronectin-coated plates, 1 μM variant, without FL-Ang1 (blocks αvβ3 integrin on vitronectin) [3]: 39%
- binding result [4]: binds
- Kd [1]: 1260 nM
- Kd [5]: 2.97 nM
- koff [5]: 0.000236 s⁻¹
- kon [5]: 79400 M⁻¹ s⁻¹
B2: Ang2-BDBC6, soluble protein (designed binder)
chain: FRDCAEVFKSGHTTNGIYTLREGRGDNVDIKAYCDMEAGGGGWTIIQRREDGSVDFQRTWKEYKVGFGNPSGEYWLGNEFVSQLTNQQRYVLKIHLKDWEGNEAYSLYEHFYLSSEELNYRIHLKGLTGTAGKISSISQPGNDFSTKDGDNDKCICKCSQMLTGGWWFDACGPSNLNGMYYPQRQNTNKFNGIKWYYWKGSGYSLKATTMMIRPADF
notes: also called Ang2-BD bi-specific variant; source: Pichia (Multi-Copy Pichia Expression Kit), purified from yeast culture supernatant (HisTrap, Superdex 200)

- decrease in Tie2 phosphorylation intensity, TIME cells on vitronectin, 500 ng/ml FL-Ang1 with 1 μM variant (blocks FL-Ang1 on Tie2) [2]: 67%
- decrease in adhesion of TIME cells to vitronectin-coated plates, 1 μM variant, with 500 ng/ml FL-Ang1 (blocks αvβ3 integrin on vitronectin) [3]: 53%
- decrease in adhesion of TIME cells to vitronectin-coated plates, 1 μM variant, without FL-Ang1 (blocks αvβ3 integrin on vitronectin) [3]: 30%
- binding result [4]: binds
- Kd [1]: 1360 nM
- Kd [6]: 65 nM
- Koff1 (two-state model, step 1) [6]: 0.00259 s⁻¹
- Koff2 (two-state model, step 2) [6]: 0.00035 s⁻¹
- Kon1 (two-state model, step 1) [6]: 39800 M⁻¹ s⁻¹
- Kon2 (two-state model, step 2) [6]: 0.00544 s⁻¹
- Kd [7]: 550 nM
- Koff1 (two-state model, step 1) [7]: 0.00629 s⁻¹
- Koff2 (two-state model, step 2) [7]: 0.00197 s⁻¹
- Kon1 (two-state model, step 1) [7]: 11400 M⁻¹ s⁻¹
- Kon2 (two-state model, step 2) [7]: 0.00304 s⁻¹
- Kd [8]: 364 nM
- Koff1 (two-state model, step 1) [8]: 0.00835 s⁻¹
- Koff2 (two-state model, step 2) [8]: 0.00106 s⁻¹
- Kon1 (two-state model, step 1) [8]: 22900 M⁻¹ s⁻¹
- Kon2 (two-state model, step 2) [8]: 0.0032 s⁻¹
- Kd [9]: 138 nM
- Koff1 (two-state model, step 1) [9]: 0.00505 s⁻¹
- Koff2 (two-state model, step 2) [9]: 0.00215 s⁻¹
- Kon1 (two-state model, step 1) [9]: 36600 M⁻¹ s⁻¹
- Kon2 (two-state model, step 2) [9]: 0.0024 s⁻¹
- Kd [5]: 14.9 nM
- koff [5]: 0.000444 s⁻¹
- kon [5]: 29900 M⁻¹ s⁻¹
B3: Ang2-BDBC5, soluble protein (designed binder)
chain: B2 chain with R21N, E22T, G23C, N27C, V28L, D29P
notes: as for B2

- decrease in Tie2 phosphorylation intensity, TIME cells on vitronectin, 500 ng/ml FL-Ang1 with 1 μM variant (blocks FL-Ang1 on Tie2) [2]: 67%
- decrease in adhesion of TIME cells to vitronectin-coated plates, 1 μM variant, with 500 ng/ml FL-Ang1 (blocks αvβ3 integrin on vitronectin) [3]: 37%
- decrease in adhesion of TIME cells to vitronectin-coated plates, 1 μM variant, without FL-Ang1 (blocks αvβ3 integrin on vitronectin) [3]: 47%
- binding result [4]: binds
- Kd [1]: 950 nM
- Kd [5]: 4.17 nM
- koff [5]: 0.000429 s⁻¹
- kon [5]: 103000 M⁻¹ s⁻¹
B4: Ang2-BDBC10, soluble protein (designed binder)
chain: B2 chain with R21Y, E22P, V28P
notes: as for B2
